The record followed here is patent US6703362 (CYTOGEN, dated 2004).

First the molecules themselves.
T1: D2H receptor domain (human D2H transporter, amino acid residues 387-685), His-tag fusion protein (human, UniProt Q07837 387-685)
T1 construct: purified under denaturing conditions; also called recombinant D2H; not shown: poly-histidine tag (pET vector) at the NH2-terminal end
T1 sequence: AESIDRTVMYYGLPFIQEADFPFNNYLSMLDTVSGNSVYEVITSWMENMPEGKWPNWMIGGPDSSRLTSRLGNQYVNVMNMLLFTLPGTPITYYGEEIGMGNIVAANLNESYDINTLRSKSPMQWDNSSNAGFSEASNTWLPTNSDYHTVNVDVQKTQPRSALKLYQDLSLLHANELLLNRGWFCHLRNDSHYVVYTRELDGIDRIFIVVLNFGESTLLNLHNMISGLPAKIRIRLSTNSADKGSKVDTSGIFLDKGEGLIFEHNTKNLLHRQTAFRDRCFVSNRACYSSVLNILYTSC

B1: SNi28 (peptide)
peptide: SHSGGMNRAYGDVFRELRDRWNATSHHTRPTPQLPRGPNAETVESCLAKPHTENSFTNVWKDDKTLDRYANYEGCLWNATGVVVCTGDETQCYGTWVPIGLAIPENEGGGSEGGGSEGGGSEGGGTKPPEYGDTPIPGYTYINPLDGTYPPGTEQNPANPNPSLEESQPLNTFMFQNNRFRNRQGALTVYTGTVTQGTDPVKTYYQYTPVSSKAMYDAYWNGKFRDCAFHSGFNEDPFVCEYQGQSSDLPQPPVNAGGGSGGGSGGGSEGGGSEGGGSEGGGSEGGGSGGGSGSGDFDYEKMANANKGAMTENADENALQSDAKGKLDSVATDYGAAIDGFIGDVSGLANGNGATGDFAGSNSQMAQVGDGDNSPLMNNFRQYLPSLPQSVECRPFVFSAGKPYEFSIDCDKINLFRGVFAFLLYVATFMYVFSTFANILRNKES
notes: Assayed as M13 phage clone displaying the insert
B2: SNi10 (peptide)
peptide: RVGQCTDSDVRRPWARSCAHQGCGAGTRNSHGCITRPLRQASAHAETVESCLAKPHTENSFTNVWKDDKTLDRYANYEGCLWNATGVVVCTGDETQCYGTWVPIGLAIPENEGGGSEGGGSEGGGSEGGGTKPPEYGDTPIPGYTYINPLDGTYPPGTEQNPANPNPSLEESQPLNTFMFQNNRFRNRQGALTVYTGTVTQGTDPVKTYYQYTPVSSKAMYDAYWNGKFRDCAFHSGFNEDPFVCEYQGQSSDLPQPPVNAGGGSGGGSGGGSEGGGSEGGGSEGGGSEGGGSGGGSGSGDFDYEKMANANKGAMTENADENALQSDAKGKLDSVATDYGAAIDGFIGDVSGLANGNGATGDFAGSNSQMAQVGDGDNSPLMNNFRQYLPSLPQSVECRPFVFSAGKPYEFSIDCDKINLFRGVFAFLLYVATFMYVFSTFANILRNKES
notes: as for B1
B3: DAB18 (peptide)
peptide: RSSANNCEWKSDWMRRACIARYANSSGPARAVDTKAAPAETVESCLAKPHTENSFTNVWKDDKTLDRYANYEGCLWNATGVVVCTGDETQCYGTWVPIGLAIPENEGGGSEGGGSEGGGSEGGGTKPPEYGDTPIPGYTYINPLDGTYPPGTEQNPANPNPSLEESQPLNTFMFQNNRFRNRQGALTVYTGTVTQGTDPVKTYYQYTPVSSKAMYDAYWNGKFRDCAFHSGFNEDPFVCEYQGQSSDLPQPPVNAGGGSGGGSGGGSEGGGSEGGGSEGGGSEGGGSGGGSGSGDFDYEKMANANKGAMTENADENALQSDAKGKLDSVATDYGAAIDGFIGDVSGLANGNGATGDFAGSNSQMAQVGDGDNSPLMNNFRQYLPSLPQSVECRPFVFSAGKPYEFSIDCDKINLFRGVFAFLLYVATFMYVFSTFANILRNKES
notes: as for B1
B4: DAX24 (peptide)
peptide: RMEDIKNSGWRDSCRWGDLRPGCGSRQWYPSNMRSSRDYPAGGHAETVESCLAKPHTENSFTNVWKDDKTLDRYANYEGCLWNATGVVVCTGDETQCYGTWVPIGLAIPENEGGGSEGGGSEGGGSEGGGTKPPEYGDTPIPGYTYINPLDGTYPPGTEQNPANPNPSLEESQPLNTFMFQNNRFRNRQGALTVYTGTVTQGTDPVKTYYQYTPVSSKAMYDAYWNGKFRDCAFHSGFNEDPFVCEYQGQSSDLPQPPVNAGGGSGGGSGGGSEGGGSEGGGSEGGGSEGGGSGGGSGSGDFDYEKMANANKGAMTENADENALQSDAKGKLDSVATDYGAAIDGFIGDVSGLANGNGATGDFAGSNSQMAQVGDGDNSPLMNNFRQYLPSLPQSVECRPFVFSAGKPYEFSIDCDKINLFRGVFAFLLYVATFMYVFSTFANILRNKES
notes: as for B1
B5: DAX27 (peptide)
peptide: SHPWYRHWNHGDFSGSGQSRHTPPESPHPGRPNATIAETVESCLAKPHTENSFTNVWKDDKTLDRYANYEGCLWNATGVVVCTGDETQCYGTWVPIGLAIPENEGGGSEGGGSEGGGSEGGGTKPPEYGDTPIPGYTYINPLDGTYPPGTEQNPANPNPSLEESQPLNTFMFQNNRFRNRQGALTVYTGTVTQGTDPVKTYYQYTPVSSKAMYDAYWNGKFRDCAFHSGFNEDPFVCEYQGQSSDLPQPPVNAGGGSGGGSGGGSEGGGSEGGGSEGGGSEGGGSGGGSGSGDFDYEKMANANKGAMTENADENALQSDAKGKLDSVATDYGAAIDGFIGDVSGLANGNGATGDFAGSNSQMAQVGDGDNSPLMNNFRQYLPSLPQSVECRPFVFSAGKPYEFSIDCDKINLFRGVFAFLLYVATFMYVFSTFANILRNKES
notes: as for B1
B6: DAB3 (peptide)
peptide: RWCGAELCNSVTKKFRPGWRDHANPSTHHRTPPPSQSSPAETVESCLAKPHTENSFTNVWKDDKTLDRYANYEGCLWNATGVVVCTGDETQCYGTWVPIGLAIPENEGGGSEGGGSEGGGSEGGGTKPPEYGDTPIPGYTYINPLDGTYPPGTEQNPANPNPSLEESQPLNTFMFQNNRFRNRQGALTVYTGTVTQGTDPVKTYYQYTPVSSKAMYDAYWNGKFRDCAFHSGFNEDPFVCEYQGQSSDLPQPPVNAGGGSGGGSGGGSEGGGSEGGGSEGGGSEGGGSGGGSGSGDFDYEKMANANKGAMTENADENALQSDAKGKLDSVATDYGAAIDGFIGDVSGLANGNGATGDFAGSNSQMAQVGDGDNSPLMNNFRQYLPSLPQSVECRPFVFSAGKPYEFSIDCDKINLFRGVFAFLLYVATFMYVFSTFANILRNKES
notes: as for B1
B7: DAB30 (peptide)
peptide: SGFWEFSRGLWDGENRKSVRSGCGFRGSSAQGPCPVTPATIDKHAETVESCLAKPHTENSFTNVWKDDKTLDRYANYEGCLWNATGVVVCTGDETQCYGTWVPIGLAIPENEGGGSEGGGSEGGGSEGGGTKPPEYGDTPIPGYTYINPLDGTYPPGTEQNPANPNPSLEESQPLNTFMFQNNRFRNRQGALTVYTGTVTQGTDPVKTYYQYTPVSSKAMYDAYWNGKFRDCAFHSGFNEDPFVCEYQGQSSDLPQPPVNAGGGSGGGSGGGSEGGGSEGGGSEGGGSEGGGSGGGSGSGDFDYEKMANANKGAMTENADENALQSDAKGKLDSVATDYGAAIDGFIGDVSGLANGNGATGDFAGSNSQMAQVGDGDNSPLMNNFRQYLPSLPQSVECRPFVFSAGKPYEFSIDCDKINLFRGVFAFLLYVATFMYVFSTFANILRNKES
notes: as for B1
B8: DAB7 (peptide)
peptide: RWCGADDPCGASRWRGGNSLFGCGLRCSAAQSTPSGRIHSTSTSAETVESCLAKPHTENSFTNVWKDDKTLDRYANYEGCLWNATGVVVCTGDETQCYGTWVPIGLAIPENEGGGSEGGGSEGGGSEGGGTKPPEYGDTPIPGYTYINPLDGTYPPGTEQNPANPNPSLEESQPLNTFMFQNNRFRNRQGALTVYTGTVTQGTDPVKTYYQYTPVSSKAMYDAYWNGKFRDCAFHSGFNEDPFVCEYQGQSSDLPQPPVNAGGGSGGGSGGGSEGGGSEGGGSEGGGSEGGGSGGGSGSGDFDYEKMANANKGAMTENADENALQSDAKGKLDSVATDYGAAIDGFIGDVSGLANGNGATGDFAGSNSQMAQVGDGDNSPLMNNFRQYLPSLPQSVECRPFVFSAGKPYEFSIDCDKINLFRGVFAFLLYVATFMYVFSTFANILRNKES
notes: as for B1
B9: DAX15 (peptide)
peptide: SESGRCRSVSRWMTTWQTQKGGCGSNVSRGSPLDPSHQTGHATTAETVESCLAKPHTENSFTNVWKDDKTLDRYANYEGCLWNATGVVVCTGDETQCYGTWVPIGLAIPENEGGGSEGGGSEGGGSEGGGTKPPEYGDTPIPGYTYINPLDGTYPPGTEQNPANPNPSLEESQPLNTFMFQNNRFRNRQGALTVYTGTVTQGTDPVKTYYQYTPVSSKAMYDAYWNGKFRDCAFHSGFNEDPFVCEYQGQSSDLPQPPVNAGGGSGGGSGGGSEGGGSEGGGSEGGGSEGGGSGGGSGSGDFDYEKMANANKGAMTENADENALQSDAKGKLDSVATDYGAAIDGFIGDVSGLANGNGATGDFAGSNSQMAQVGDGDNSPLMNNFRQYLPSLPQSVECRPFVFSAGKPYEFSIDCDKINLFRGVFAFLLYVATFMYVFSTFANILRNKES
notes: as for B1
B10: DAB24 (peptide)
peptide: SKWSWSSRWGSPQDKVEKTRAGCGGSPSSTNCHPYTFAPPPQAGAETVESCLAKPHTENSFTNVWKDDKTLDRYANYEGCLWNATGVVVCTGDETQCYGTWVPIGLAIPENEGGGSEGGGSEGGGSEGGGTKPPEYGDTPIPGYTYINPLDGTYPPGTEQNPANPNPSLEESQPLNTFMFQNNRFRNRQGALTVYTGTVTQGTDPVKTYYQYTPVSSKAMYDAYWNGKFRDCAFHSGFNEDPFVCEYQGQSSDLPQPPVNAGGGSGGGSGGGSEGGGSEGGGSEGGGSEGGGSGGGSGSGDFDYEKMANANKGAMTENADENALQSDAKGKLDSVATDYGAAIDGFIGDVSGLANGNGATGDFAGSNSQMAQVGDGDNSPLMNNFRQYLPSLPQSVECRPFVFSAGKPYEFSIDCDKINLFRGVFAFLLYVATFMYVFSTFANILRNKES
notes: as for B1

The target in one experiment is T2, hSI receptor domain (human sucrase-isomaltase complex, amino acid residues 272-667), His-tag fusion protein (human, UniProt P14410 272-667).
T2 construct: also called hS1; recombinant hSI; not shown: poly-histidine tag (pET vector) at the NH2-terminal end
T2 sequence (P14410 272-667, one chain of several): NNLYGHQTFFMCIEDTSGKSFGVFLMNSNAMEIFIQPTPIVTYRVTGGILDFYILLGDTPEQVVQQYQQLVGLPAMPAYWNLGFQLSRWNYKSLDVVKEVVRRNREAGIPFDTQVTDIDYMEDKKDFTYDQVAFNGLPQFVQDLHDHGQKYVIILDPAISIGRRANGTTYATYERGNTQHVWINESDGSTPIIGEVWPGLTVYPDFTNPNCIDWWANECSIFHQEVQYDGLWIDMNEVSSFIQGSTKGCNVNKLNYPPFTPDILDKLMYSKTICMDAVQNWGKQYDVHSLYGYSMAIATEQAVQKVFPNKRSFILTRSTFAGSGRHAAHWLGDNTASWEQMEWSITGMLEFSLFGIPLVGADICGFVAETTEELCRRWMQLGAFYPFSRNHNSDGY
Description: phage ELISA, OD on hSI over OD on BSA. The protocol:
(§1) 6.6. Receptor ELISA Procedure 96 well plates were coated overnight with GIT receptor, BSA and, optionally, IDE (insulin degrading enzyme, an irrelevant His-fusion protein)or hTF. The plates were blocked for one hour with 0.5% BSA-PBS. After clarification, the amplified phage were diluted 1:100 in […] plus 0.05% Tween 20 in PBS and added to the plates. Following incubation of the plates on a rotator for 1 to 2 hours, the plates were washed 5 times with 1% BSA plus 0.05% Tween 20 in PBS. […] After the plates were washed 5 times, as described above, TMB substrate was added to the wells. The plates were read at 650 nm absorbance.
As for B1, the hSI/BSA was determined as 8 ratio.

The molecule B2 displayed a hSI/BSA of 11 ratio.

The next experiment deals with T2, hSI receptor domain (human …). Description: phage ELISA, plate coated with hSI domain. The protocol:
as §1
In general terms: An ELISA detects its analyte on a solid surface through an enzyme-linked reagent.
Consider B1, for which the OD came out at 0.942 OD.

Molecule B2 gave an OD of 0.57 OD.

In the next experiment the target is T1, D2H receptor domain (human D2H …). Description: phage ELISA, plate coated with D2H domain. The protocol: as §1
B3 displayed an OD of 0.467 OD.

Consider B4, for which the OD is 0.591 OD.

The molecule B5 returned an OD of 1.58 OD.

In the case of B6, the OD worked out at 0.406 OD.

In the case of B7, the OD was 0.704 OD.

B8 had an OD of 0.702 OD.

B9 showed an OD of 0.391 OD.

Regarding B10, the OD turned out to be 1.8 OD.
